Where two headings read alike, the source gives them in different places.
Experiments:
[1] = molecular target: T1, Protein A (Protein A sensor tips, Forte Bio, 18-5012) (UniProt P38507 37-327); assay: BLI, Protein A tips
T1 construct: used to correct for the concentration of the antibody samples

[2] = molecular target: T2, Biotinylated Human EpCAM/TROP1 Protein, Avitag His tag, Cat. No. EPM-H82E8 (human, UniProt P16422 24-265, biotinylated); assay: BLI, EpCAM on SAX tips
T2 construct: immobilized on SAX biosensor tips
T2 sequence (looked up): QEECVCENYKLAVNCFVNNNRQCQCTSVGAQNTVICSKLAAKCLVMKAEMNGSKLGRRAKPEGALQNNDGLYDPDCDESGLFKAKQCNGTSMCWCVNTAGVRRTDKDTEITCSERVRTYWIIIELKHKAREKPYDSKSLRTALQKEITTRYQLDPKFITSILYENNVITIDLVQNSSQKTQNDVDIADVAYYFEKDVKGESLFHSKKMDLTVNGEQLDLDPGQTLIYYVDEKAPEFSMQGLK

[3] = molecular target: T2, Biotinylated Human EpCAM/TROP1 Protein, …; assay: BLI, EpCAM signal over Protein A signal
[4] = molecular target: T1, Protein A (Protein A sensor tips, Forte …); assay: BLI, Protein A tips; remark: listed apart in the source
[5] = molecular target: T2, Biotinylated Human EpCAM/TROP1 Protein, …; assay: BLI, EpCAM on SAX tips; remark: listed apart in the source
[6] = molecular target: T1, Protein A (Protein A sensor tips, Forte …); assay: BLI, Protein A tips; remark: listed apart in the source
[7] = molecular target: T2, Biotinylated Human EpCAM/TROP1 Protein, …; assay: BLI, EpCAM signal over Protein A signal; remark: listed apart in the source
[8] = molecular target: T1, Protein A (Protein A sensor tips, Forte …); assay: BLI, Protein A tips; remark: listed apart in the source
[9] = molecular target: T3, Biotinylated Human TROP2/TACSTD2 Protein, His Avitag, Cat. No. TR2-H82E5 (human, UniProt P09758 27-274, biotinylated); assay: BLI, TROP2 signal over Protein A signal
T3 construct: immobilized on SAX biosensor tips
T3 sequence (looked up): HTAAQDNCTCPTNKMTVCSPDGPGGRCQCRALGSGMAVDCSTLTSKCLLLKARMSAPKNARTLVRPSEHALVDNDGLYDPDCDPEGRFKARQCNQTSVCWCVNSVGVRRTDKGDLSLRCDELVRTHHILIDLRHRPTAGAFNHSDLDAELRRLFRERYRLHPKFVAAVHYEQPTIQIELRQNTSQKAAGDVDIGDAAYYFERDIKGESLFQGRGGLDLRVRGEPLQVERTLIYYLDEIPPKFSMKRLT

[10] = molecular target: T3, Biotinylated Human TROP2/TACSTD2 …; assay: BLI, TROP2 on SAX tips
[11] = molecular target: T1, Protein A (Protein A sensor tips, Forte …); assay: BLI, Protein A tips; remark: listed apart in the source

B1: S304 (antibody, human IgG1, kappa)
heavy: not shown
light: QVQLVESGGGLVQPGGSLTLSCTASGFTLDHYDIGWFRQAPGKEREGVSCINNSDDDTYYADSVKGRFTIFMNNAKDTVYLQMNSLKPEDTAIYYCAEARGCKRGRYEYDFWGQGTQVTVSSGGGGSPLGLAGGGSELQMTQSPSSLSASVGDRVTITCRTSQSISSYLNWYQQKPGQPPKLLIYWASTRESGVPDRFSGSGSGTDFTLTISSLQPEDSATYYCQQSYDIPYTFGQGTKLEIKRTVAAPSVFIFPPSDEQLKSGTASVVCLLNNFYPREAKVQWKVDNALQSGNSQESVTEQDSKDSTYSLSSTLTLSKADYEKHKVYACEVTHQGLSSPVTKSFNRGEC
notes: also called masked adecatumumab Qg-BC2T-L9-HC / BC2-Nb-L9-LC
**Q.** With B1 as the binder, how does the “Protein A binding after 10 s of association” value (shortened to “Protein A binding after 10 s”) [1] read?
**A.** Its value is 1.35 nm.

**Q.** What about the “EpCAM binding after 10 s of association” value [2] of the same binder?
**A.** The value was 0.0247 nm.

**Q.** What about the “EpCAM/Protein A * 1000” value [3] of the same binder?
**A.** Its value is 18.3.

B2: S305 (antibody, human IgG1, kappa)
heavy: not shown
light: B1 light
notes: also called masked P41C adecatumumab Qg-BC2T-L9-HC (P41C) / BC2-Nb-L9-LC
**Q.** Which “Protein A binding after 10 s” value [1] does the source give for B2 here?
**A.** The value was 1.31 nm.

**Q.** What about the “EpCAM binding after 10 s of association” value [2] of the same binder?
**A.** Its value is 0.0189 nm.

**Q.** And the “EpCAM/Protein A * 1000” value [3]?
**A.** Its value is 14.5.

B3: S310 (antibody, human IgG1, kappa)
heavy: not shown
light: QVQLVESGGGLVQPGGSLTLSCTASGFTLDHYDIGWFRQAPGKEREGVSCINNSDDDTYYADSVKGRFTIFMNNAKDTVYLQMNSLKPEDTAIYYCAEARGCKRGRYEYDFWGQGTQVTVSSGGGGSPLGLAGGGSDIQMTQSPSSLSASVGDRVTITCKASQDIRKYLNWYQQKPGKAPKLLIYYATSLADGVPSRFSGSGSGTDYTFTISSLQPEDIATYYCLQHGESPYTFGQGTKLEITRTVAAPSVFIFPPSDEQLKSGTASVVCLLNNFYPREAKVQWKVDNALQSGNSQESVTEQDSKDSTYSLSSTLTLSKADYEKHKVYACEVTHQGLSSPVTKSFNRGEC
notes: also called masked MORAb-066 Qg-BC2T-L9-HC / BC2-Nb-L9-LC
**Q.** B3 was tested. Which “Protein A binding after 10 s” value [4] did it give?
**A.** The value was 0.993 nm.

B4: S311 (antibody, human IgG1, kappa)
heavy: not shown
light: B3 light
notes: also called masked P41C MORAb-066 Qg-BC2T-L9-HC (P41C) / BC2-Nb-L9-LC
**Q.** B4 was tested. Which “Protein A binding after 10 s” value [4] did it give?
**A.** The value was 1.33 nm.

B5: S300 (antibody, human IgG1, kappa)
heavy: not shown
light: DIVMTQSALSNPVTLGESGSISCRSSKSLLHSNGITYLYWYLQKPGQSPQLLIYQMSNRASGVPDRFSSSGSGTDFTLKISRVEAEDVGVYYCAQNLELPRTFGQGTKLEMKRTVAAPSVFIFPPSDEQLKSGTASVVCLLNNFYPREAKVQWKVDNALQSGNSQESVTEQDSKDSTYSLSSTLTLSKADYEKHKVYACEVTHQGLSSPVTKSFNRGEC
notes: also called Anti-EpCAM ING-1 (naked)
**Q.** Which “EpCAM binding after 10 s of association” value [5] does the source give for B5 here?
**A.** The value was 0.947 nm.

**Q.** What about the “Protein A binding after 10 s” value [6] of the same binder?
**A.** Its value is 0.95 nm.

**Q.** And the “EpCAM/Protein A * 1000” value [7]?
**A.** The value was 997.

B6: S309 (antibody, human IgG1, kappa)
heavy: not shown
light: DIQMTQSPSSLSASVGDRVTITCKASQDIRKYLNWYQQKPGKAPKLLIYYATSLADGVPSRFSGSGSGTDYTFTISSLQPEDIATYYCLQHGESPYTFGQGTKLEITRTVAAPSVFIFPPSDEQLKSGTASVVCLLNNFYPREAKVQWKVDNALQSGNSQESVTEQDSKDSTYSLSSTLTLSKADYEKHKVYACEVTHQGLSSPVTKSFNRGEC
notes: also called Anti-TF MORAb-066, CNT0860 (naked)
**Q.** For B6, which “Protein A binding after 10 s” value [4] is on record?
**A.** Its value is 1.79 nm.

B7: S307 (antibody, human IgG1, kappa)
heavy: not shown
light: QVQLVESGGGLVQPGGSLTLSCTASGFTLDHYDIGWFRQAPGKEREGVSCINNSDDDTYYADSVKGRFTIFMNNAKDTVYLQMNSLKPEDTAIYYCAEARGCKRGRYEYDFWGQGTQVTVSSGGGGSPLGLAGGGSDIQLTQSPSSLSASVGDRVSITCKASQDVSIAVAWYQQKPGKAPKLLIYSASYRYTGVPDRFSGSGSGTDFTLTISSLQPEDFAVYYCQQHYITPLTFGAGTKVEIKRTVAAPSVFIFPPSDEQLKSGTASVVCLLNNFYPREAKVQWKVDNALQSGNSQESVTEQDSKDSTYSLSSTLTLSKADYEKHKVYACEVTHQGLSSPVTKSFNRGEC
notes: also called masked sacituzumab Qg-BC2T-L9-HC / BC2-Nb-L9-LC
**Q.** How did the “Protein A binding after 10 s” value [8] turn out when B7 was run?
**A.** Its value is 1.11 nm.

**Q.** What about the “TROP2/Protein A * 1000” value [9] of the same binder?
**A.** The value was 31.1.

**Q.** And the “TROP2 binding after 10 s of association” value [10]?
**A.** Its value is 0.0345 nm.

B8: S308 (antibody, human IgG1, kappa)
heavy: not shown
light: B7 light
notes: also called masked P41C sacituzumab Qg-BC2T-L9-HC (P41C) / BC2-Nb-L9-LC
**Q.** With B8 as the binder, how does the “Protein A binding after 10 s” value [8] read?
**A.** Its value is 0.646 nm.

**Q.** And the “TROP2/Protein A * 1000” value [9]?
**A.** The value was 23.8.

**Q.** And the “TROP2 binding after 10 s of association” value [10]?
**A.** The value was 0.0154 nm.

B9: S301 (antibody, human IgG1, kappa)
heavy: not shown
light: QVQLVESGGGLVQPGGSLTLSCTASGFTLDHYDIGWFRQAPGKEREGVSCINNSDDDTYYADSVKGRFTIFMNNAKDTVYLQMNSLKPEDTAIYYCAEARGCKRGRYEYDFWGQGTQVTVSSGGGGSPLGLAGGGSDIVMTQSALSNPVTLGESGSISCRSSKSLLHSNGITYLYWYLQKPGQSPQLLIYQMSNRASGVPDRFSSSGSGTDFTLKISRVEAEDVGVYYCAQNLELPRTFGQGTKLEMKRTVAAPSVFIFPPSDEQLKSGTASVVCLLNNFYPREAKVQWKVDNALQSGNSQESVTEQDSKDSTYSLSSTLTLSKADYEKHKVYACEVTHQGLSSPVTKSFNRGEC
notes: also called masked ING-1 Qg-BC2T-L9-HC / BC2-Nb-L9-LC
**Q.** Which results are given for B9?
**A.** EpCAM binding after 10 s of association [5]: 0.074 nm; Protein A binding after 10 s of association [6]: 0.541 nm; EpCAM/Protein A * 1000 [7]: 137

B10: S302 (antibody, human IgG1, kappa)
heavy: not shown
light: B9 light
notes: also called masked P41C ING-1 Qg-BC2T-L9-HC (P41C) / BC2-Nb-L9-LC
**Q.** B10 was tested. Which “EpCAM binding after 10 s of association” value [5] did it give?
**A.** The value was 0.0354 nm.

**Q.** What about the “Protein A binding after 10 s” value [6] of the same binder?
**A.** The value was 0.275 nm.

**Q.** And the “EpCAM/Protein A * 1000” value [7]?
**A.** Its value is 129.

B11: S313 (antibody)
heavy: not shown
light: QVQLVESGGGLVQPGGSLTLSCTASGFTLDHYDIGWFRQAPGKEREGVSCINNSDDDTYYADSVKGRFTIFMNNAKDTVYLQMNSLKPEDTAIYYCAEARGCKRGRYEYDFWGQGTQVTVSSGGGGSPLGLAGGGSDIQMTQSPPSLSASAGDRVTITCRASQGISSRLAWYQQKPEKAPKSLIYAASSLQSGVPSRFSGSGSGTDFTLTISSLQPEDFATYYCQQYNSYPYTFGQGTKLEIKRTVAAPSVFIFPPSDEQLKSGTASVVCLLNNFYPREAKVQWKVDNALQSGNSQESVTEQDSKDSTYSLSSTLTLSKADYEKHKVYACEVTHQGLSSPVTKSFNRGEC
notes: also called masked tisotumab Qg-BC2T-L9-HC / BC2-Nb-L9-LC
**Q.** How did the “Protein A binding after 10 s” value [11] turn out when B11 was run?
**A.** Its value is 1.73 nm.

B12: S314 (antibody)
heavy: not shown
light: B11 light
notes: also called masked P41C tisotumab Qg-BC2T-L9-HC (P41C) / BC2-Nb-L9-LC
**Q.** B12 was tested. Which “Protein A binding after 10 s” value [11] did it give?
**A.** Its value is 1.37 nm.

B13: S306 (antibody, human IgG1, kappa)
heavy: not shown
light: DIQLTQSPSSLSASVGDRVSITCKASQDVSIAVAWYQQKPGKAPKLLIYSASYRYTGVPDRFSGSGSGTDFTLTISSLQPEDFAVYYCQQHYITPLTFGAGTKVEIKRTVAAPSVFIFPPSDEQLKSGTASVVCLLNNFYPREAKVQWKVDNALQSGNSQESVTEQDSKDSTYSLSSTLTLSKADYEKHKVYACEVTHQGLSSPVTKSFNRGEC
notes: also called Anti-TROP2 sacituzumab hRS7 (naked)
**Q.** With B13 as the binder, how does the “Protein A binding after 10 s” value [8] read?
**A.** Its value is 0.915 nm.

**Q.** And the “TROP2/Protein A * 1000” value [9]?
**A.** Its value is 818.

**Q.** What about the “TROP2 binding after 10 s of association” value [10] of the same binder?
**A.** Its value is 0.749 nm.

B14: S303 (antibody, human IgG1, kappa)
heavy: not shown
light: ELQMTQSPSSLSASVGDRVTITCRTSQSISSYLNWYQQKPGQPPKLLIYWASTRESGVPDRFSGSGSGTDFTLTISSLQPEDSATYYCQQSYDIPYTFGQGTKLEIKRTVAAPSVFIFPPSDEQLKSGTASVVCLLNNFYPREAKVQWKVDNALQSGNSQESVTEQDSKDSTYSLSSTLTLSKADYEKHKVYACEVTHQGLSSPVTKSFNRGEC
notes: also called Anti-EpCAM adecatumumab (MT-201) (naked)
**Q.** How did the “Protein A binding after 10 s” value [1] turn out when B14 was run?
**A.** Its value is 3.09 nm.

**Q.** And the “EpCAM binding after 10 s of association” value [2]?
**A.** Its value is 1.85 nm.

**Q.** And the “EpCAM/Protein A * 1000” value [3]?
**A.** Its value is 599.

— patent publication US20250136717A1 (BYONDIS B V, published 2025)
